Measurements published in article PMC10591475.

Target: protein fusion 1, SpyCatcher03 fused to supercharged green fluorescent protein, conjugated with polymer surfactant ([SC3-scGFP][S])
Experiment: SDS-PAGE of covalent (isopeptide) SpyCatcher-SpyTag coupling; 10 uM of each protein mixed in 20 mM Tris-HCl, 700 mM NaCl, pH 7.5, 37 °C, monitored over 24 h, in triplicate; product estimated from the pixel intensity of the bands (GelAnalyzer)

Work on “protein fusion 3, mCherry fused to SpyTag03 (mCh-ST3)” yielded a percent of coupling product formed after 15 s of 60% and a yield of coupling product after 24 h of 60%.
“protein fusion 2, fibronectin-binding protein CshA fused to mCherry with SpyTag03 on the C-terminus (CshA-mCh-ST3)” gave a percent of coupling product formed after 15 s of 40% and a yield of coupling product after 24 h of 80%.
